Measured values taken from PMC10991328, “A distal enhancer guides the negative selection of toxic glycoalkaloids during tomato domestication”.

Molecular target: MYC2-GST (Solanum lycopersicum (MicroTom), UniProt A0A3Q7HRZ6 1-689)
Experiment: EMSA; strong binding; 20-40 ng protein; EMSA: 10 mM Tris-HCl pH 7.2, 50 mM KCl, 1 mM DTT, 2.5% glycerol, 0.05% NP-40, 50 ng/uL poly(dI-dC), room temperature, 20 min; pull-down: 10 mM HEPES pH 7.9, 100 mM KCl, 5 mM MgCl2, 10% glycerol, 1 mM DTT, 0.5% NP-40, 4 C overnight
Conditions: protein: recombinant; tags: GST (pGEX-4T-1); chain copies: 2; label: 3'-biotin; blunt

MYC2-GST, sequence (A0A3Q7HRZ6 whole entry): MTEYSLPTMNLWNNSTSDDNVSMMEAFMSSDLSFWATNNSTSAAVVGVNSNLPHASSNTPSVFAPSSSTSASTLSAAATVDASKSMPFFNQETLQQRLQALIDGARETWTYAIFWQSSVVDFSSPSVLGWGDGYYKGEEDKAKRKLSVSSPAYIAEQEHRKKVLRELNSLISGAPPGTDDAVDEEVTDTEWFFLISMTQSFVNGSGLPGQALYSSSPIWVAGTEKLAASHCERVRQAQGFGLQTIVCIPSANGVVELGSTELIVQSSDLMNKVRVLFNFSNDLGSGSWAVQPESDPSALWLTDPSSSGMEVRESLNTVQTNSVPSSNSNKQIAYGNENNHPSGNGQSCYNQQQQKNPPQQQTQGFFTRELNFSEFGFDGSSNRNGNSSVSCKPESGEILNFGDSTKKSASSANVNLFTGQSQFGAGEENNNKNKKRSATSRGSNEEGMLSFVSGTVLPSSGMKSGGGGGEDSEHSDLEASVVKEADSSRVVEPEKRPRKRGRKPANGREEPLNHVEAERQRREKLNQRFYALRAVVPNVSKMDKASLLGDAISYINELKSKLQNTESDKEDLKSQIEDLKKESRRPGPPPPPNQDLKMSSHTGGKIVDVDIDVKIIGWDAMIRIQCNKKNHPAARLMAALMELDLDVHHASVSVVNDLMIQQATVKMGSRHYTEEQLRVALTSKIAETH

B1: GE1-1 probe (dsDNA)
DNA 1: ATGTATGTGTCTAATCAAACATCGGTGGCATAATTTTTTTTAGCATCAAA
DNA 2: TTTGATGCTAAAAAAAATTATGCCACCGATGTTTGATTAGACACATACAT
B1: binds.
